We go through two molecules from patent US7648964B2, “Use of lacritin in promoting ocular cell survival” (University of Virginia Patent Foundation, priority 2004, dated 2010).

The target in one assay is T1, syndecan-1 (Homo sapiens, UniProt P18827).
T1 construct: expressed in transfected cells; host or cells: HEK293 (syndecan-1); E. coli ER2566 (lacritin-intein)
T1 sequence (P18827 23-310): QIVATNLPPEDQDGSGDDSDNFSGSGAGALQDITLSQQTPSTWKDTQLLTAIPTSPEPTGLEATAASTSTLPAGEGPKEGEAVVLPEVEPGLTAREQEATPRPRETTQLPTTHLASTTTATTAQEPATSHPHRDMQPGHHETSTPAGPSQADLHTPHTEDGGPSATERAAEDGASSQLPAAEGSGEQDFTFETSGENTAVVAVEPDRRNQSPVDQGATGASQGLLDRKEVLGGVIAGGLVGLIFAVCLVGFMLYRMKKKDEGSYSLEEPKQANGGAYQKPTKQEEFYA
Briefly: Competitive binding assay of lacritin-syndecan-1 binding. Conditions: competitive binding assays. The text has this: Biotinylated cell surface proteins were applied to lacritin affinity columns. After washing extensively in physiological salt-containing buffer, bound protein was eluted with 1 M NaCl, and identified with avidin-peroxidase using an ECL blot method. In controls, columns lacking lacritin were used. […] 293T cells stably transfected with human syndecan-2 or −4 were kindly provided by Dr. Atsushi Utani (Chiba University). A series of lacritin C-terminal and N-terminal deletion mutants were generated. Pull down binding assays involved incubation of intein-tagged lacritin or intein deletion mutants with lysates of untransfected or transfected cells followed by precipitation and SDS PAGE. Immunolocalization of syndecan-1 in human lacrimal glands was performed using anti-human syndecan-1 antibody (CD138).
The first of approximately four bands repeatedly eluted from lacritin affinity column was determined by sequencing to be syndecan-1. In pull-down assays, lacritin bound mammalian syndecan-1, but not syndecan-2 or 4. The binding appeared to be independent of heparan sulfate side chains, in keeping with lack of lacritin binding to heparin (previously known). Deletion of lacritin's C-terminal 25 but not N-terminal 5, 10, or 24 amino acids eliminated binding. […] Syndecan-1 was detected in ‘near apical’ and basolateral plasma membranes in human lacrimal gland.

The test system of assay [1] is human corneal epithelial cells. Briefly: Calcium signaling in human corneal epithelial cells (Fluo-3AM). As to conditions: HCE cells. Format: cell-based. The protocol:
Freshly isolated rat lacrimal acinar cells, and HSG (human salivary gland) ductal and HCE (human corneal epithelial) cell lines were used to study lacritin function. For secretion studies, rat acinar cells were plated serum-free overnight on wells co-coated with 0.05 μM laminin 1 (to ensure adhesion) and 0 to 20 μM lacritin, or alternatively with laminin-1 (0.05 μM) and treated the next day with serum-free medium containing 0 to 162 ng/ml of soluble lacritin for four hours. Unstimulated and stimulated (carbachol 10^−4 M/VIP 10^−8 M) secretions were then collected, assessed (peroxidase assay) and normalized to μg cellular DNA. To study tyrosine phosphorylation, overnight serum-free cultures of both rat lacrimal acinar and HSG cells were washed and treated with 10 ng/ml of soluble lacritin for 0.5, 2.5, 10, and 30 minutes. Py(20) anti-phosphotyrosine antibody immunoprecipitation of cell lysates was then examined in Western blots of 7% SDS PAGE gels using Py(20) and ECL for detection. […] Using an inverted Zeiss 510 LSM for visualization, 50 second baseline images were first recorded. While the laser was running, lacritin was added (final concentration 4 and 40 ng/ml) and the response continually monitored every 786 msec for a minimum of 200 sec.

Another assay deals with Leydig (TM4) cells. Briefly: 3H-thymidine uptake mitogenesis assay. The assay is classed as cell-based, mouse. As to the method:
(§1) For phosphotyrosine blotting and mitogenesis assays, cells in serum-containing media were seeded overnight in 24-well plates at a density of 0.5×10^5 cells/mm^2 corresponding to 20-30% confluency after cell attachment, incubated in serum-free media without supplements for 24 h (phosphotyrosine) or washed with serum-free media without supplements three times (mitogenesis) and incubated with lacritin (1-1000 nM), or positive controls EGF (1.6 nM) and 10% fetal bovine serum, or negative controls bovine serum albumin or no additive in serum-free media without supplements for the indicated times (phosphotyrosine) or 30 h (mitogenesis). […] After washing, bound antibodies were detected with peroxidase-labeled secondary antibody and ECL. […] Incorporation was stopped with ice-cold phosphate buffered saline and followed by addition of cold and then room temperature trichloracetic acid (10%) for 10 min each, washing of cells with phosphate buffered saline, solubilization with 1 N sodium hydroxide, neutralization with 1 N hydrochloric acid, addition of scintillation fluid and then quantitation in a scintillation counter. […] Seventy-two hours post-transfection, mitogenesis was assessed by co-addition of 10 […] lacritin and [^3H]-thymidine (2 mCi/ml) (Amersham, Piscataway N.J.) for 24 hrs. […]

Another assay has as its system Sertoli (TM3) cells. Briefly: 3H-thymidine uptake mitogenesis assay. Format: cell-based, mouse. The protocol: as §1
The subject of another assay is MUC16. Briefly: MUC16 blot of human corneal epithelial cells. Format: cell-based. Conditions: 10 nM. An excerpt: MUC16 is an important mucin on the ocular surface. Mucin contributes to the tear film, is important for wetting the ocular surface, and is reduced in Sjogren's syndrome patients. […] Cells were blotted for MUC16.

B1: N-24: deletion mutant comprising a deletion of the 24 amino terminal amino acids of lacritin (protein)
chain: DSTGADPAQEAGTSKPNEEISGPAEPASPPETTTTAQETSAAAVQGTAKVTSSRQELNPLKSIVEKSILLTEQALAKAGKGMHGGVPGGKQFIENGSEFAQKLLKKFSLLKPWA
modifications: homo sapiens
notes: deletion mutant comprising a deletion of the 24 amino terminal amino acids of lacritin
Turning to B1, the inhibition of binding entry with syndecan-1 is “inhibited binding”.

B2: lacritin: recombinant human lacritin from E. coli; mature 119 residue fragment (SEQ ID NO:10) of native lacritin SEQ ID NO:4 (protein, listed as Homo sapiens)
chain: EDASSDSTGADPAQEAGTSKPNEEISGPAEPASPPETTTTAQETSAAAVQGTAKVTSSRQELNPLKSIVEKSILLTEQALAKAGKGMHGGVPGGKQFIENGSEFAQKLLKKFSLLKPWA
As to B2, in assay [1], the “rapidity of lacritin-dependent calcium mobilization” value was 20 to 30 s. Also, the calcium signals entry in assay [1] (serum-free) was “rapid and sustained calcium waves”. Moreover, the mitogenesis result in the assay on Leydig (TM4) cells and in the assay with Sertoli (TM3) cells was “not mitogenic” throughout. In addition, the inhibition of binding entry with syndecan-1 is listed as “inhibited binding”. Further, the MUC16 secretion entry in the assay with MUC16 is “greatly enhanced”.
